These are literature values, as cited in PMC10419064.

Some results are limits rather than exact numbers.

In this data set the target is Cardiac troponin I switch peptide (Homo sapiens) (UniProt P19429).

As for “Cardiac troponin C regulatory N-domain (from UniProt P63316)”, the Kd (commonly the constant that tells how readily two partners part at equilibrium) was less than 50 µM.
